The source of these data is US20250051474A1, “ANTI-CD97 ANTIBODIES AND ANTIBODY-DRUG CONJUGATES” (New York University, priority 2023, published 2025).

Assay [1] deals with T1, CD97 (ADGRE5) isoform 1 ectodomain, purified and biotinylated (human, UniProt P48960 21-552, limits assumed, biotinylated in vitro using the BirA enzyme).
T1 construct: the whole entry for isoform 1 is named here; also called CD97 isoform 1; Biotinylated CD97 isoform 1
T1 sequence: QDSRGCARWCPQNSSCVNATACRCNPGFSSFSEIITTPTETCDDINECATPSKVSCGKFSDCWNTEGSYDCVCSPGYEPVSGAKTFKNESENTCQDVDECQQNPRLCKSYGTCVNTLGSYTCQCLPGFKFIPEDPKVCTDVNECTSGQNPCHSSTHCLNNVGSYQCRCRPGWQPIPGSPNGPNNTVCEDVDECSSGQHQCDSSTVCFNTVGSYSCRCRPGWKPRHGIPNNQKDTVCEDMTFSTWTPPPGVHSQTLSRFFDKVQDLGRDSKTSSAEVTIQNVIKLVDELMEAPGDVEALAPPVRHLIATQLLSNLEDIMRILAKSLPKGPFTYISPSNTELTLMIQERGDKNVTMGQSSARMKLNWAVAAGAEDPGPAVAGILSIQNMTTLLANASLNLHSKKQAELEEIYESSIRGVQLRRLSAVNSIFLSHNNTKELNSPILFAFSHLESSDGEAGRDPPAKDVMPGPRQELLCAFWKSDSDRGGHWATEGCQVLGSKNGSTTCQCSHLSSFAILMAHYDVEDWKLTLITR
The assay is described as follows: bead-based binding assay: biotinylated CD97 isoform 1 on streptavidin beads, Fab titrated, flow cytometry MFI, 1:1 fit; EXPERIMENT 1.
Procedure: (§1) KD values were determined from the curve fitting of a 1:1 binding model.

Assay [2] concerns the target T1, CD97 (ADGRE5) isoform 1 ectodomain, …. In words: bead-based binding assay: biotinylated CD97 isoform 1 on streptavidin beads, Fab titrated, flow cytometry MFI, 1:1 fit; EXPERIMENT 2.
Procedure: as §1
For assay [3], the target named is T2, CD97 GAIN mutant T524K expressed on ExpiCHO cells (human, UniProt P48960 21-835).
T2 construct: numbering of isoform 1; whole entry named
T2 sequence: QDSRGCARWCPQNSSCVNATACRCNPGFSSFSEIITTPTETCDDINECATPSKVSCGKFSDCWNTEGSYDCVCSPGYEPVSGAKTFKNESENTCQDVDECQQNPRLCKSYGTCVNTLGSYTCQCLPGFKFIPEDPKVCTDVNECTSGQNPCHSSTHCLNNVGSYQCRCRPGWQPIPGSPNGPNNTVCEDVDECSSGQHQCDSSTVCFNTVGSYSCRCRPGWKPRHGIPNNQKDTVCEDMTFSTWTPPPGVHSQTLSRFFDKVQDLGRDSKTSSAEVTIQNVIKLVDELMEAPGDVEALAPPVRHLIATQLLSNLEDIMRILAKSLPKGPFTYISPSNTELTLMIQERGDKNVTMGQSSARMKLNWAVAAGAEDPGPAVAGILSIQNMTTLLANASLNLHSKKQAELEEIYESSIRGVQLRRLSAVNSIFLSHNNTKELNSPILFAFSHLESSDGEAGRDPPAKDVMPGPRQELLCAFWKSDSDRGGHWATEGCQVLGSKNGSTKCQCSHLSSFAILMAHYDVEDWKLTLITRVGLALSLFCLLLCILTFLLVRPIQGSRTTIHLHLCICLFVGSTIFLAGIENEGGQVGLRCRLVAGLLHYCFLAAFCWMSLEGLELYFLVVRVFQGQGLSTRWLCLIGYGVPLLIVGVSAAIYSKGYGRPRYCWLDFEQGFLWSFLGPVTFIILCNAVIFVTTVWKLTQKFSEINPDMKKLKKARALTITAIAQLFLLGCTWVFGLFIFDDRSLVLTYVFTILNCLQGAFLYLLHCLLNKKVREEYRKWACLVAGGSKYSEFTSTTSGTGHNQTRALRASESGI
In words: cell-based binding assay: CD97 GAIN mutant T524K transiently expressed on ExpiCHO cells, A8 Fab titrated, flow cytometry MFI; lower panel. Background: Flow cytometry measures light scatter and fluorescence of single cells or particles in a stream.
Procedure: as §1

Assay [4] has as its target T3, CD97 (reference without GAIN mutation) expressed on ExpiCHO cells in the mutational study (human, UniProt P48960 21-835).
T3 construct: the whole entry for isoform 1 is named here; also called CD97 GAIN domain
T3 sequence: T2 sequence with K504T
The assay is described as follows: cell-based binding assay: CD97 transiently expressed on ExpiCHO cells, A8 Fab titrated, flow cytometry MFI, 1:1 fit; the same WT curve and value stand in the upper and the lower panel.
Procedure: as §1

Broadly, the Kd is the constant that tells how readily two partners part at equilibrium.

Positions count from the first letter of the chain named.

B1: Antibody clone A8, Fab format (Fab, V domains shown)
VH: EVQLVESGGGLVQPGGSLRLSCAASGFTISSYSIHWVRQAPGKGLEWVASISPYYGSTSYADSVKGRFTISADTSKNTAYLQMNSLRAEDTAVYYCARSWYYYEQNPYWYQKEEQALDYWGQGTLVTVSS
VL: DIQMTQSPSSLSASVGDRVTITCRASQSVSSAVAWYQQKPGKAPKLLIYSASSLYSGVPSRFSGSRSGTDFTLTISSLQPEDFATYYCQQSVYSPVTFGQGTKVEIKR
notes: Fab; also called wild type A8
B1: the Kd was 0.016 µM in assay [1], 0.0095 µM in assay [2] and 0.045 µM in assay [4]. Besides, the binding result in assay [3] is on record as “no binding (tested: 1000 nM)”.
